From patent US20250127904A1, “SIGLEC LIGANDS, CONJUGATES, AND METHODS OF USE THEREOF” (Osprey Biopharmaceuticals, Inc., priority 2023, published 2025)

Tests used:
C57BL/6 mice = assay: In vivo anti-drug antibody (ADA) titers in mice; design: species or system mouse; conditions: 4 mg/kg subcutaneous, day 20
Method: Adalimumab and Adalimumab-Siglec Ligand conjugates were prepared as described in Example 4. The Adalimumab-Siglec ligand was conjugated by maleimide coupling to engineered cysteine residue L443C in the heavy chain constant region.
To evaluate the production of antibodies specific to adalimumab and/or adalimumab-Siglec Ligand conjugates, C57BL/6 mice were immunized through subcutaneous injection with adalimumab or CD22 ligand-conjugated adalimumab. On study day −1, animals were randomized into treatment groups based on body weight. On study day 0, animals were bled for baseline serum and then injected subcutaneously with adalimumab or the adalimumab-Siglec Ligand conjugate. The individual antigens were prepared by making antigen solution in sterile PBS pH 7.4. […]
ADA assays were performed on 96-well assay plates (Nunc Plates, Black 96-Well Immuno Plates, Thermo Scientific, Cat. No. 437111) coated with antigen, as follows. […] The excitation and emission settings for the QuantaBlu Fluorogenic Peroxide Substrates are 325 nm and 420 nm and the relative florescence units were measured using a SpectraMax plate reader. […] The titer cut point was determined by calculating the mean of the naïve, untreated mice and adding twice the standard deviation of the untreated samples.

[1] = Pharmacokinetic monitoring in mice after single subcutaneous administration; type: in vivo, mouse; conditions: C57BL/6 mice, single subcutaneous dose 4 mg/kg
Method: Pharmacokinetic monitoring was also carried out in the same C57BL/6 mice following a single subcutaneous administration of adalimumab or the SigL-conjugated adalimumab antibodies. Animals were bled via the retro-orbital sinus throughout the study under inhaled isoflurane anesthesia at 1 h, 6 h, 1-day, 2-days, 6-days, 13-days, 20 days and 27-days post test-article administration. Whole blood was collected into Microvette K2EDTA capillary collection tube (Sarstedt Inc) and then further processed following manufactures instructions to collect plasma. Levels of adalimumab and SigL-conjugated adalimumab in plasma samples were measured using an AlphaLISA human IgG assay (Perkin Elmer) following manufacturer's protocols.

With Adalimumab the ADA titers (C57BL/6 mice) was “high ADA titers”, the clearance [1] was “significantly increased clearance” and the “time of falling below the limit of quantitation (BLOQ)” value [1] was 13 days.
